# B1: fluorescein-labeled CgluPup-Q30C variant (free) (natural protein, Corynebacterium glutamicum, UniProt Q8NQE0 1-64, looked up)
# chain: MNAKQTQIMGGGGRDEDNAEDSAQASGQVC(fluorescein‑5‑maleimide)INTEGVDSLLDEIDGLLENNAEEFVRSYVQKGGE
# notes: prokaryotic ubiquitin-like protein Pup, Corynebacterium glutamicum; also called CgluPup-Q30C-Fluorescein; free CgluPup-Q30C
# Molecular target: T1, Pup ligase CgluPafA-His6 (proteasome accessory factor A from Corynebacterium glutamicum) (Corynebacterium glutamicum, UniProt Q8NQE1 1-482)
# T1 construct: Pup ligase PafA, Corynebacterium glutamicum; The anisotropy methods call the titrated protein only 'CgluPafA'
# T1 sequence (looked up): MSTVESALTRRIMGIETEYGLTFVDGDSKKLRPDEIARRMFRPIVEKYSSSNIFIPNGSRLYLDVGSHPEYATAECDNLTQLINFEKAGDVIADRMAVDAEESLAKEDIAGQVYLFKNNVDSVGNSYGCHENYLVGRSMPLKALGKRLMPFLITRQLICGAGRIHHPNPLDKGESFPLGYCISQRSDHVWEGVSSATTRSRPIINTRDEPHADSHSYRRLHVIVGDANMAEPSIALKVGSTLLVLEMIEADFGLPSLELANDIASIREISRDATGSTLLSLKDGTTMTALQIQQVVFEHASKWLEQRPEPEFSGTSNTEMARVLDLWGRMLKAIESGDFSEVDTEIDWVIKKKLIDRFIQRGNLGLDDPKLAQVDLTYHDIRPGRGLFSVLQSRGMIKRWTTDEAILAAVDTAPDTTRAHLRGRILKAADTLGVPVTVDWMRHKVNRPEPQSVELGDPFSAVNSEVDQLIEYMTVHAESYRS
# Assay: fluorescence polarisation; fluorescence anisotropy on a Synergy BioTek plate reader; 12.5 nM CgluPup-Q30C-Fluorescein labeled substrate or free CgluPup with 0 to 30 uM CgluPafA; 50 mM Tris pH 8.04 (RT), 150 mM NaCl, 0.5 mM EDTA, 0.001% Tween-20
# Conditions: both partners purified
binder,measurement,value
B1,Kd,1820 ± 180 nM

# From article PMC5286830, “Prokaryotic ubiquitin-like protein remains intrinsically disordered when covalently attached to proteasomal target proteins” (BMC Structural Biology, 2017)
